Changes are numbered by the printed parent chain. Values joined by “and” are separate entries in the source; they are usually repeats but may differ in a detail not shown here. Equal entries are not always repeated.

These results are taken from patent publication US20260116991A1 (HAINAN SIMCERE ZAIMING PHARMACEUTICAL, published 2026).

Assay [1] addresses T1, GPC3 on HepG2 cells (human, UniProt P51654 25-554).
T1 construct: whole, on cells; also called glypican-3
The experiment in a line: FACS on HepG2 cells.

Assay [2] concerns the target T2, murine GPC3-His protein (Sino Biological, Cat. No. 50989-M08B) (murine, UniProt Q8CFZ4 25-558).
T2 construct: Bought protein; also called murine GPC3 protein; mouse GPC3-his protein; not shown: His tag
The experiment in a line: ELISA, coated antigen.

In assay [3] the target is T3, polypeptide GC3pep of human GPC3 (Ala524-Lys563) (human).
T3 construct: Residues Ala524-Lys563 of human GPC3 (NCBI NM_004484.3); coated on the ELISA plate; also called membrane proximal polypeptide GC3pep
T3 peptide: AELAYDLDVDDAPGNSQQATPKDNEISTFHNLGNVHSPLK
The experiment in a line: ELISA, coated peptide.

T2 sequence (Q8CFZ4 25-558 limits assumed): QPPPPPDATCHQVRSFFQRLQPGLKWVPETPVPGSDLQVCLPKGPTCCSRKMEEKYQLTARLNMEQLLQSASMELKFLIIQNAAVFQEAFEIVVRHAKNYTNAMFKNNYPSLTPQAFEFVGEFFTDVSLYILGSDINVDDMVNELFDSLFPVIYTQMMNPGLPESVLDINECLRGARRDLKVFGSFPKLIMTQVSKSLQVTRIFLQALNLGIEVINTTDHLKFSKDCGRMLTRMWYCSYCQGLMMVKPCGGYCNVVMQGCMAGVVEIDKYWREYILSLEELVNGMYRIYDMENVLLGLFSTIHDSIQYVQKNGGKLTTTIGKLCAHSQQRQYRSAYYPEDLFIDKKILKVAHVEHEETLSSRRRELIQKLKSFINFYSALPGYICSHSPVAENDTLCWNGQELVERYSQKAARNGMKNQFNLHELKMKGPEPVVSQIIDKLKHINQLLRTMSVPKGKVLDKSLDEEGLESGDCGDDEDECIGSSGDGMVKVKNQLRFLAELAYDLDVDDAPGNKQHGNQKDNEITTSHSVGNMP

B1: GC33 IgG (antibody, V domains shown)
VH: QVQLVQSGAEVKKPGASVKVSCKASGYTFTDYEMHWVRQAPGQGLEWMGALDPKTGDTAYSQKFKGRVTLTADKSTSTAYMELSSLTSEDTAVYYCTRFYSYTYWGQGTLVTVSS
VL: DVVMTQSPLSLPVTPGEPASISCRSSQSLVHSNRNTYLHWYLQKPGQSPQLLIYKVSNRFSGVPDRFSGSGSGTDFTLKISRVEAEDVGVYYCSQNTHVPPTFGQGTKLEIKR
notes: Complete IgG form of the control antibody GC33; also called codrituzumab
With B1, the half-maximal effective concentration (EC50) (in general, the concentration needed to bring the measured effect to its halfway point) in assay [1] is 1.56 nM and 1.21 nM.

B2: hAb001H1L1b (antibody, human IgG1, V domains shown)
VH: EVQLVESGGGLVQPGGSLRLSCAASGFSFNTNAMNWVRQAPGKGLEWVGRIRSKSNNYATYYADSVKDRFTISRDDSKNSLYLQMNSLKTEDTAVYYCVRDGYYVLFAYWGQGTLVTVSS
VL: DIVMTQTPLSLPVTPGEPASISCRFSQSIVNSNANTYLEWFLQKPGQSPQLLIYKVSNRFSGVPDRFSGSGSGTDFTLKISRVEAEDVGVYYCFQGSHVPFTFGQGTKLEIK
notes: Humanized F2.169.2, H1+L1b
On to B2, for which, in assay [1], the concentration for a half-maximal effect (EC50) is 0.918 nM and the “Max MFI” value came to 4090.

B3: hAb007LH1L1b (antibody, human IgG1, V domains shown)
VH: EVQLVQSGAEVKKPGSSVKVSCKASGYTFSDYEMHWVRQAPGQGLEWMGTIDPETGNTAYNQKFKGRVTITADKSTSTAYMELSSLRSEDTAVYYCTRPYSLTYWGQGTLVTVSS
VL: B2 VL with F25S, I29F, N31H, A34R, N35D, E39Q, F41Y, F101Y
notes: Humanized F3.81.19
B3: the binding result in assay [2] is reported as “no binding”.

B4: hAb006LH3L1a (antibody, human IgG1, V domains shown)
VH: B3 VH with S30T, M34I, T50A, E54K, K65M, I70L, P99Y, Y100F, L102F, T103A
VL: B2 VL with F25S, S28T, I29F, N31H, N33D, A34G, E39Q, F41Y, F101Y
notes: Humanized F3.38.7
In the case of B4, the binding result in assay [2] is on record as “no binding”.

B5: hAb007LH1L1a (antibody, human IgG1, V domains shown)
VH: B3 VH
VL: B2 VL with F25S, I29F, N31H, N33D, A34G, N35D, E39Q, F41Y, F101Y
notes: Humanized F3.81.19
In the case of B5, in assay [2], the binding result is reported as “no binding”.

B6: hAb007LH1L1d (antibody, human IgG1, V domains shown)
VH: B3 VH
VL: B2 VL with F25S, I29F, N31H, A34S, N35D, E39Q, F41Y, F101Y
notes: Humanized F3.81.19
As to B6, in assay [2], the binding result is “no binding”.

B7: hAb006LH3L1d (antibody, human IgG1, V domains shown)
VH: B3 VH with S30T, M34I, T50A, E54K, K65M, I70L, P99Y, Y100F, L102F, T103A
VL: B2 VL with F25S, S28T, I29F, N31H, A34S, E39Q, F41Y, F101Y
notes: Humanized F3.38.7
Turning to B7, the binding result in assay [2] is given as “no binding”.

B8: hAb007LH1L1c (antibody, human IgG1, V domains shown)
VH: B3 VH
VL: B2 VL with F25S, I29F, N31H, N35D, E39Q, F41Y, F101Y
notes: Humanized F3.81.19
Consider B8, for which the binding result in assay [2] is on record as “no binding”.

B9: hAb007LH1L1 (antibody, human IgG1, V domains shown)
VH: B3 VH
VL: B2 VL with F25S, I29F, N31H, A34G, N35D, E39Q, F41Y, F101Y
notes: Humanized F3.81.19
Regarding B9, the binding result in assay [2] is given as “no binding”.

B10: hAb007LH3L1 (antibody, human IgG1, V domains shown)
VH: B3 VH with S30T, I70L
VL: B2 VL with F25S, I29F, N31H, A34G, N35D, E39Q, F41Y, F101Y
notes: Humanized F3.81.19
As for B10, in assay [2], the binding result is on record as “no binding”.

B11: hAb006LH3L1e (antibody, human IgG1, V domains shown)
VH: B3 VH with S30T, M34I, T50A, E54K, K65M, I70L, P99Y, Y100F, L102F, T103A
VL: B2 VL with F25S, S28T, I29F, N31H, A34V, E39Q, F41Y, F101Y
notes: Humanized F3.38.7
For B11, in assay [2], the binding result is recorded as “no binding”.

B12: hAb007LH1L1e (antibody, human IgG1, V domains shown)
VH: B3 VH
VL: B2 VL with F25S, I29F, N31H, A34V, N35D, E39Q, F41Y, F101Y
notes: Humanized F3.81.19
As to B12, in assay [2], the binding result is on record as “no binding”.

B13: hAb007LH2L1a (antibody, human IgG1, V domains shown)
VH: B3 VH with S30T
VL: B2 VL with F25S, I29F, N31H, N33D, A34G, N35D, E39Q, F41Y, F101Y
notes: Humanized F3.81.19
With B13, the binding result in assay [2] is on record as “no binding”.

B14: hAb007LH2L1b (antibody, human IgG1, V domains shown)
VH: B3 VH with S30T
VL: B2 VL with F25S, I29F, N31H, A34R, N35D, E39Q, F41Y, F101Y
notes: Humanized F3.81.19
Regarding B14, the binding result in assay [2] is recorded as “no binding”.

B15: hAb007LH3L1b (antibody, human IgG1, V domains shown)
VH: B3 VH with S30T, I70L
VL: B2 VL with F25S, I29F, N31H, A34R, N35D, E39Q, F41Y, F101Y
notes: Humanized F3.81.19
With B15, the binding result in assay [2] is recorded as “no binding”.

B16: hAb007LH3L1a (antibody, human IgG1, V domains shown)
VH: B3 VH with S30T, I70L
VL: B2 VL with F25S, I29F, N31H, N33D, A34G, N35D, E39Q, F41Y, F101Y
notes: Humanized F3.81.19
Regarding B16, the binding result in assay [2] is listed as “no binding”.

B17: hAb006LH2L1b (antibody, human IgG1, V domains shown)
VH: B3 VH with S30T, M34I, T50A, E54K, K65M, P99Y, Y100F, L102F, T103A
VL: B2 VL with F25S, S28T, I29F, N31H, E39Q, F41Y, F101Y
notes: Humanized F3.38.7
Regarding B17, the binding result in assay [2] is “no binding”.

B18: F1.42.8 human-murine chimeric antibody (antibody, human IgG1, kappa, V domains shown)
VH: HVQLQQPGAELVKPGASVKLSCKASGYTFTSYWMHWVRQRPGQGLEWIEMIHPNSGSTNYNEKFKSKATLTVDKSSSTAYMQLSSLTSEDSAVYYCARGNYNSSLYAMDYWGQGTSVTVSS
VL: DIQMTQTTSSLSASLGDRVTISCSASQGISNYLNWYQQKPDGTVKLLIYYASNLHSGVPSRFSGSGSGTAYSLTISNLEPEDIATYYCQQYSILPYTFGGGTKLEIKR
notes: Chimeric
B18: in assay [3], the binding result is listed as “no binding (tested: 100 nM)”.

B19: F1.73.9 human-murine chimeric antibody (antibody, human IgG1, kappa, V domains shown)
VH: QVQLKQSGAELVRPGASVKLSCKASGYTFTDYYINWVKQRPGQGLEWIARIYPGSGNTYYNEKFKGKATLTAEKSSSTAYMQFSSLTSEDSAVYFCACSTYYTMDYWGQGTSVTVSS
VL: QIVLTQSPAIMSASLGERVTMTCTASSGVSSSYLHWYQQKPGSSPKLWIYTTSNLASGVPARFSGSGSGTSYSLTISSMEAEDAATYYCHQYHRSPYTFGGGTKLEIKR
notes: Chimeric
B19: the binding result in assay [3] is listed as “no binding (tested: 100 nM)”.

B20: F1.2.14 human-murine chimeric antibody (antibody, human IgG1, kappa, V domains shown)
VH: RVQLQQSGAELVKPGASVRMSCKASGYTFTAYSIEWMKQNLGKSLEWIGNFRPYNDDTKYNENFKGRATLTVEKSSATVYLELSRLTSDDSAVYYCARSGPTDYFDYWGQGTTLIVSS
VL: DIQMTQSPASLSASVGETVTITCRASDNIYSYLAWYQQKQGQSPQLLVYNAKTLAEGVPSRFSGSGSVTQFSLKIISLQPEDFGTYYCQHHFGTPRTFGGGTKLEIKR
notes: Chimeric
On to B20, for which, in assay [3], the binding result is “no binding (tested: 100 nM)”.

B21: F1.57.21 human-murine chimeric antibody (antibody, human IgG1, kappa, V domains shown)
VH: QVQLQQSGAELARPGASVKLSCKASGYTFTSYGISWVKQITGQGLEWIGEIYPRSESTYYNEKFKGKATLTADKSSSTAYMELRSLTSEDSAVYFCARDYGNIYSFAYWGQGTLVTVSA
VL: B20 VL with A25T, D27E, Q42K, V68G, I76N, T85S, F92Y, R96L, G100A, I106L
notes: Chimeric
In the case of B21, the binding result in assay [3] is on record as “no binding (tested: 100 nM)”.

B22: F1.21.8 human-murine chimeric antibody (antibody, human IgG1, kappa, V domains shown)
VH: EVQLQQSGPELVKPGASVKISCKTSGFLFTGHYMHWVKSSHGNILDWIGYIYPYNAISFYNQKFKGKATLTVDKSSNTAYMELRSLTSEDSAVYYCARGDYGNYVTAYWGQGTLVTVSA
VL: DVLMTQTPLSLPVSLGDQASISCRSSQSIVHSSGNTYLEWYLQKPGQSPKLLIYKVSNRFSGVPDRFSGSGSGTDFTLKISRVEAEDLGVYYCFQGSHLPWTFGGGTKLDIKR
notes: Chimeric
As for B22, the binding result in assay [3] is “no binding (tested: 100 nM)”.

B23: F1.78.24 human-murine chimeric antibody (antibody, human IgG1, kappa, V domains shown)
VH: QVQLQQSGAELVKPGASVKMSCKASGYTFTTYPIEWMKQNHGKSLEWIGNFHPYNDDTNYNVKFKGKATLTVEKSSSTVYLELSRLTSDDSALYYCARRREYYGSFDVWGTGTTVTVSS
VL: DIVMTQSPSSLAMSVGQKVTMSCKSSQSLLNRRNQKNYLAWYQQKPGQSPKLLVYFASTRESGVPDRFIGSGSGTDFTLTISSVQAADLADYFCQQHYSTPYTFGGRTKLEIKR
notes: Chimeric
With B23, the binding result in assay [3] is “no binding (tested: 100 nM)”.
